In publication PMC4379030:

Key:
[1] = target: CaM-free full-length murine inducible nitric-oxide synthase, expressed and purified in the absence of CaM (murine) (UniProt P29477)
[2] = target: CaM-free full-length murine inducible nitric-oxide synthase, expressed and purified in the absence of CaM (murine) (UniProt P29477); assay: ITC; single injection mode; 20 μM iNOSfl (-CaM) (dissolved in 200 μl) against 8 μM CaM (dissolved in 2 ml); 40 mM EPPS, 10% glycerol, 150 mM NaCl, 2 mM Ca2+; single-site binding model

Chain of UniProt P29477 (P29477 whole entry): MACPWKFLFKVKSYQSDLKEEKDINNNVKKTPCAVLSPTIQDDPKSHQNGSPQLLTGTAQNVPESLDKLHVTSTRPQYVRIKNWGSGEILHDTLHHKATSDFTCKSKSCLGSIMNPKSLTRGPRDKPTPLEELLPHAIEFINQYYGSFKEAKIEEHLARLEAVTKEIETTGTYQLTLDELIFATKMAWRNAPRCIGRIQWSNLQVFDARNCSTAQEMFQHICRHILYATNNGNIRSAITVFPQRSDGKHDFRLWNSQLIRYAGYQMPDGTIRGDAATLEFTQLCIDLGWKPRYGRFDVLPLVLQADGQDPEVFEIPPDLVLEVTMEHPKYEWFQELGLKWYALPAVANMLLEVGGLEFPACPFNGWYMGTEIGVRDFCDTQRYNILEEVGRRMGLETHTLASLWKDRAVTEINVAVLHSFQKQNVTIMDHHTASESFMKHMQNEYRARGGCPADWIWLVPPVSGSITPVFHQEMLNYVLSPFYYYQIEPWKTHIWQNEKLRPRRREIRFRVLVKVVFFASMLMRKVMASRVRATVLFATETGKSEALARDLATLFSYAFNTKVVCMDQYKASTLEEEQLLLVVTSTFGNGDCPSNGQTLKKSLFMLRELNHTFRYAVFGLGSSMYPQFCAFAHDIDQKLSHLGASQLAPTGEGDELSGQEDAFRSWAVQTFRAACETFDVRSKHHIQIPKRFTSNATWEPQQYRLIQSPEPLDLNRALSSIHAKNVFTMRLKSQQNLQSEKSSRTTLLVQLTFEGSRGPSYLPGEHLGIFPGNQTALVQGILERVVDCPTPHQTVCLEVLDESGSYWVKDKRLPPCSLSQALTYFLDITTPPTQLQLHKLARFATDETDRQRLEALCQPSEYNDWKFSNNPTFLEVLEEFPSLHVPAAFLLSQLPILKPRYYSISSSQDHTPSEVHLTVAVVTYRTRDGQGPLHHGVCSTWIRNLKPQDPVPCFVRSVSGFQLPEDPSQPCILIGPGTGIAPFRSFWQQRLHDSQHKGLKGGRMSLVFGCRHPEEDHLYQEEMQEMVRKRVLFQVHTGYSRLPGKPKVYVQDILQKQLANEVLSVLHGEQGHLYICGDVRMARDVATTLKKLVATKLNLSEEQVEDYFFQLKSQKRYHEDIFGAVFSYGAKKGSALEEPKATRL

- steady-state NO synthesis activity (oxyhemoglobin assay, 1 μM CaM in the assay buffer, 25°C) (min^-1 per μg of protein) [1]: 10.8
- dH [2]: 489 kcal/mol
Substance: calmodulin (added in vitro) (from UniProt P0DP23 1-149) (natural protein)
